{"source": "patent WO2015103549A1", "about": "(dated 2015)", "key": {"[1]": {"biological_target": "T1, HIV YU2 gp160 extracellular domain (gp140) foldon trimer (HIV-1, UniProt P35961 32-671)", "T1 construct": "extracellular domain; also called HIVYU2 gp140 foldon trimer; not shown: foldon trimerisation domain", "experiment": "ELISA, antigen coated at 2 ug/ml"}, "HIV YU2 gp120 monomer": {"biological_target": "T2, HIV YU2 gp120 monomer (HIV-1, UniProt P35961 32-498)", "T2 construct": "domain: gp120", "experiment": "ELISA, antigen coated at 2 ug/ml"}, "HIV YU2 gp41 monomer": {"biological_target": "T3, HIV YU2 gp41 monomer (HIV-1, UniProt P35961 499-671)", "T3 construct": "domain: gp41", "experiment": "ELISA, antigen coated at 2 ug/ml"}, "[2]": {"biological_target": "T4, Sjogren syndrome antigen B (UniProt P05455 1-408)", "T4 construct": "also called SSB; SS-B/La", "T4 sequence (looked up)": "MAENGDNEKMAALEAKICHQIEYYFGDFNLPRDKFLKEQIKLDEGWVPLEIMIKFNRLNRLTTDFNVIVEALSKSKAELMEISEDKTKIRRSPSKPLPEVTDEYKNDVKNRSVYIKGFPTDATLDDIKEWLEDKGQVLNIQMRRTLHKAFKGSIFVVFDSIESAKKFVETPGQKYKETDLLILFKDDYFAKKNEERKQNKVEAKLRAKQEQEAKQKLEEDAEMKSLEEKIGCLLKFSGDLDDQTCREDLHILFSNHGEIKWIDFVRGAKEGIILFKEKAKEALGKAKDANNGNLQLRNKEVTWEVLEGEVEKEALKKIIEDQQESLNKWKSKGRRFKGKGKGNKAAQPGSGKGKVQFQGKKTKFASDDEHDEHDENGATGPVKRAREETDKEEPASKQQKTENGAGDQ", "experiment": "Luminex AtheNA Multi-Lyte ANA test"}, "Jo1 antigen": {"biological_target": "T5, Jo1 antigen (UniProt P12081 2-509)", "T5 sequence (looked up)": "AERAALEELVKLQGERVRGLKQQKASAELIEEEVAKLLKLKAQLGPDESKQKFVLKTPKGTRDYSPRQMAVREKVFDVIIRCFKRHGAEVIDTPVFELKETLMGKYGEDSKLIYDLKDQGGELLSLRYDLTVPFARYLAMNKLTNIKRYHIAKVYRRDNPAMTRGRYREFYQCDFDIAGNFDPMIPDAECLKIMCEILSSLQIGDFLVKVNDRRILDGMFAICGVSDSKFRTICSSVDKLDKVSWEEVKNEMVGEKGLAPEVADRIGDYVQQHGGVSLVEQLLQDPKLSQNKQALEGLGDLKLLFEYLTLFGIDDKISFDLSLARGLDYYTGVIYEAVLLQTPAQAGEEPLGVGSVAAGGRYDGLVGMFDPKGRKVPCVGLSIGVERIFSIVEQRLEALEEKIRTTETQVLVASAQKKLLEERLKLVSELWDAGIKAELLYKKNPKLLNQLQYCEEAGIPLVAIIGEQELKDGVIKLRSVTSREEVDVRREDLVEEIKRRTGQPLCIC", "experiment": "Luminex AtheNA Multi-Lyte ANA test"}, "centromere B": {"biological_target": "T6, centromere B (UniProt P07199 2-599)", "T6 construct": "also called CentrB", "T6 sequence (looked up)": "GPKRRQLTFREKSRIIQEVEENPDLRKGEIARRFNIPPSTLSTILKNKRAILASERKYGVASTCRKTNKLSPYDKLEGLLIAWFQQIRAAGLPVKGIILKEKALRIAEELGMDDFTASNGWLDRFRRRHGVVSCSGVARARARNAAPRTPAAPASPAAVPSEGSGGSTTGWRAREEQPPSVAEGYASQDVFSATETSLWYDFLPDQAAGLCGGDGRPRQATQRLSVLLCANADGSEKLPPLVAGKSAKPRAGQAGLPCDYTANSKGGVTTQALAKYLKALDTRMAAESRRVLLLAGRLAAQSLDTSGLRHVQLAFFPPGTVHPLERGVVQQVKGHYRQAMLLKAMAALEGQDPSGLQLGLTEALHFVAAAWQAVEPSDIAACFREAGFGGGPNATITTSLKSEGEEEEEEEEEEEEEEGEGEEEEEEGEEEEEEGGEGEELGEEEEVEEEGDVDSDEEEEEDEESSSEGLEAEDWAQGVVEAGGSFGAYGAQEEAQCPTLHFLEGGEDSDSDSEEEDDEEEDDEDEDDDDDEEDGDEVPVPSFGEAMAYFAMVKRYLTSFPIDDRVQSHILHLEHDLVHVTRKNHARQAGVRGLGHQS", "experiment": "Luminex AtheNA Multi-Lyte ANA test"}, "scleroderma 70": {"biological_target": "T7, scleroderma 70 (UniProt P11387 2-765)", "T7 construct": "also called Scl 70", "T7 sequence (looked up)": "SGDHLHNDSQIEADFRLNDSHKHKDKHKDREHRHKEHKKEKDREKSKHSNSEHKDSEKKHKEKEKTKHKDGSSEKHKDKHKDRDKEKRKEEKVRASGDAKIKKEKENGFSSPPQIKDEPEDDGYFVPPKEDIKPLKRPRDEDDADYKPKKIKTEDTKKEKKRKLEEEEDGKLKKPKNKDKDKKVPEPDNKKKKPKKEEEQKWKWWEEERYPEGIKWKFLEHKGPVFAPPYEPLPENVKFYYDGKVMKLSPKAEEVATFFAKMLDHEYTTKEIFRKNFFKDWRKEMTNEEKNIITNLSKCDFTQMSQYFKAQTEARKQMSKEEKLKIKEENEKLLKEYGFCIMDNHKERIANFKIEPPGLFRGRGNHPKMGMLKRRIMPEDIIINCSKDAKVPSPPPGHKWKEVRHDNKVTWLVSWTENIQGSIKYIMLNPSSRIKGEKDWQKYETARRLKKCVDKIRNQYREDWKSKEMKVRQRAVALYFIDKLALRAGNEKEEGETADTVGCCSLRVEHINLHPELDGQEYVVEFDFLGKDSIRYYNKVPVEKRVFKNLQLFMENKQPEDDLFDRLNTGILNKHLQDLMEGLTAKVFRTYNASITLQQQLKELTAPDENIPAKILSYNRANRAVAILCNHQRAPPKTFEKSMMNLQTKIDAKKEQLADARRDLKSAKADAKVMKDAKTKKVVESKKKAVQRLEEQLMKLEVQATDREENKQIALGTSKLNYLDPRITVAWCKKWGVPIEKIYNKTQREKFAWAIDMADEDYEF", "experiment": "Luminex AtheNA Multi-Lyte ANA test"}, "BG505 SOSIP.664 trimer": {"biological_target": "T8, BG505 SOSIP.664 trimer (HIV-1)", "T8 construct": "domain: gp120;domain: gp41 ectodomain; also called soluble BG505 SOSIP", "experiment": "SPR, trimer immobilized by anti-histidine capture, Biacore 3000, 25 C (FIG. 2D)"}}, "data": [{"binder": "35022 antibody (antibody, V domains shown, also called 35022 mAb) VH: QGQLVQSGAELKKPGASVKISCKTSGYRFNFYHINWIRQTAGRGPEWMGWISPYSGDKNLAPAFQDRVIMTTDTEVPVTSFTSTGAAYMEIRNLKFDDTGTYFCAKGLLRDGSSTWLPYLWGQGTLLTVSS VL: QSVLTQSASVSGSLGQSVTISCTGPNSVCCSHKSISWYQWPPGRAPTLIIYEDNERAPGISPRFSGYKSYWSAYLTISDLRPEDETTYYCCSYTHNSGCVFGTGTKVSVL", "values": [{"measurement": "binding result", "setting": "[1]", "value": "no binding"}, {"measurement": "binding result", "setting": "HIV YU2 gp120 monomer", "value": "no binding"}, {"measurement": "binding result", "setting": "HIV YU2 gp41 monomer", "value": "no binding"}, {"measurement": "binding result", "setting": "[2]", "value": "no binding"}, {"measurement": "binding result", "setting": "Jo1 antigen", "value": "no binding"}, {"measurement": "binding result", "setting": "centromere B", "value": "no binding"}, {"measurement": "binding result", "setting": "scleroderma 70", "value": "no binding"}, {"measurement": "Kd", "setting": "BG505 SOSIP.664 trimer", "value": 5.6, "unit": "nM"}]}]}
